As usually defined, the Kd is a measure of binding affinity in units of concentration.

These results are taken from patent US20200262920A1 (AMPHIVENA THERAPEUTICS, published 2020).

Test [1] addresses T1, human CD3 (human, UniProt P07766 23-207; P09693 23-182; P04234 22-171; P20963 22-164). As to the kind of experiment: cell-based or functional assay.
Test [2] deals with T2, human CD33 (human, UniProt P20138 18-364).
T2 construct: whole, on cells; also called huCD33; CD33 on HL-60, KG-1, KG-1a, U-937 cells
Kind of test: flow cytometry titration, HL-60 cells. On the procedure:
(§1) Cells were incubated with 100 μL of serial dilutions of CD33/CD3 2×2 T-cell engagers. After washing three times with FACS buffer the cells were incubated with 0.1 mL of 10 μg/mL mouse monoclonal anti-His antibody in the same buffer for 45 min on ice. After a second washing cycle, the cells were incubated with 0.1 mL of 15 μg/mL FITC-conjugated goat anti-mouse IgG antibodies under the same conditions as before. As a control, cells were incubated with the anti-His IgG followed by the FITC-conjugated goat anti-mouse IgG antibodies without anti-CD33 2×2 T-cell engagers. The cells were then washed again and resuspended in 0.2 mL of FACS buffer containing 2 μg/mL propidium iodide (PI) in order to exclude dead cells. The fluorescence of 1×10⁴ living cells was measured using a Beckman-Coulter FC500 MPL flow cytometer using the MXP software (Beckman-Coulter, Krefeld, Germany) or a Millipore Guava EasyCyte flow cytometer using the Incyte software (Merck Millipore, Schwalbach, Germany). Mean fluorescence intensities of the cell samples were calculated using CXP software (Beckman-Coulter, Krefeld, Germany) or Incyte software (Merck Millipore, Schwalbach, Germany). After subtracting the fluorescence intensity values of the cells stained with the secondary and tertiary reagents alone the values were used for calculation of the KD values with the equation for one-site binding (hyperbola) of the GraphPad Prism (version 6.00 for Windows, GraphPad Software, La Jolla Calif. USA). […]
For orientation: In flow cytometry, cells or beads pass a laser one at a time.

For test [3], the target named is T2, human CD33. Kind of test: flow cytometry titration, KG-1 cells. How it is done:
as §1

Test [4] addresses T2, human CD33. Kind of test: flow cytometry titration, U-937 cells. How it is done:
as §1

Test [5] has as its target T2, human CD33. As to the kind of experiment: cell-based or functional assay.
The target in test [6] is T1, human CD3. Kind of test: flow cytometry titration, T cells (human CD3+).
Test [7] concerns the target T1, human CD3. As to the kind of experiment: flow cytometry, human T-cells.
The target in test [8] is T2, human CD33. Kind of test: flow cytometry, HL-60 cells.
Test [9] deals with T3, cynomolgus CD33 (cynomolgus, UniProt A0A7N9ICR5 17-359).
T3 construct: whole, on cells; also called cynoCD33; cyno CD33
Kind of test: ratio of KD by flow cytometry on CHO cells expressing cynomolgus CD33 vs human CD33. On the procedure: Cells were incubated with 100 μL of serial dilutions of CD33/CD3 2×2 T-cell engagers. After washing three times with FACS buffer the cells were incubated with 0.1 mL of 10 μg/mL mouse monoclonal anti-His antibody in the same buffer for 45 min on ice. After a second washing cycle, the cells were incubated with 0.1 mL of 15 μg/mL FITC-conjugated goat anti-mouse IgG antibodies under the same conditions as before. As a control, cells were incubated with the anti-His IgG followed by the FITC-conjugated goat anti-mouse IgG antibodies without anti-CD33 2×2 T-cell engagers. The cells were then washed again and resuspended in 0.2 mL of FACS buffer containing 2 μg/mL propidium iodide (PI) in order to exclude dead cells. The fluorescence of 1×10⁴ living cells was measured using a Beckman-Coulter FC500 MPL flow cytometer using the MXP software (Beckman-Coulter, Krefeld, Germany) or a Millipore Guava EasyCyte flow cytometer using the Incyte software (Merck Millipore, Schwalbach, Germany). Mean fluorescence intensities of the cell samples were calculated using CXP software (Beckman-Coulter, Krefeld, Germany) or Incyte software (Merck Millipore, Schwalbach, Germany). After subtracting the fluorescence intensity values of the cells stained with the secondary and tertiary reagents alone the values were used for calculation of the KD values with the equation for one-site binding (hyperbola) of the GraphPad Prism (version 6.00 for Windows, GraphPad Software, La Jolla Calif. USA).
CD3 binding affinity and crossreactivity were evaluated in titration and flow cytometric experiments on CD3⁺ Jurkat cells (provided by Dr. Moldenhauer, DKFZ Heidelberg; human acute T-cell leukemia) and the cynomolgus CD3⁺ HSC-F cell line (JCRB, cat.:JCRB 1164). […] The KD ratio of crossreactivity was calculated using the KD values determined on the CHO cell lines expressing either recombinant human or recombinant cynomolgus antigens.

For test [10], the target named is T2, human CD33. Kind of test: cell-based or functional assay. This is another data set of the same source.

Where “and” joins values, the source holds several entries; their conditions need not be identical. Equal values may be shown once.

T1 sequence (P07766 23-207, chain 1 of 4): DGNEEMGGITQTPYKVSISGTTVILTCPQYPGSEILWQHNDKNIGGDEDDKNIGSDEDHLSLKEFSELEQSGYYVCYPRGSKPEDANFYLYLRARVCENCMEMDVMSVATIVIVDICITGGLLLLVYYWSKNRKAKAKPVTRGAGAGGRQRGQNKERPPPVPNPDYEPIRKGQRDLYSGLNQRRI
T1 sequence (P09693 23-182, chain 2 of 4): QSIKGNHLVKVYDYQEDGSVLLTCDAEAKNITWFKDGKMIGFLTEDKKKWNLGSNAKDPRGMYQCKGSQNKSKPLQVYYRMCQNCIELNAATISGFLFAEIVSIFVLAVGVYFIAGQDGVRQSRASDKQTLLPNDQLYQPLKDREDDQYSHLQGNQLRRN
T1 sequence (P04234 22-171, chain 3 of 4): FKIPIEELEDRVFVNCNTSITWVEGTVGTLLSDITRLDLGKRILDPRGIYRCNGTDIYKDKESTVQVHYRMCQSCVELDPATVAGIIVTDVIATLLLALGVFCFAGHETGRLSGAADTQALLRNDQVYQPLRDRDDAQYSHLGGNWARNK
T1 sequence (P20963 22-164, chain 4 of 4): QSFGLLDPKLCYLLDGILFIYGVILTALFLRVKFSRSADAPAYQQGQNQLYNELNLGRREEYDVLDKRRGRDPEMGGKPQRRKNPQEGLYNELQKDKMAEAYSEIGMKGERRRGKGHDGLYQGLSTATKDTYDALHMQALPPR
T2 sequence (P20138 18-364): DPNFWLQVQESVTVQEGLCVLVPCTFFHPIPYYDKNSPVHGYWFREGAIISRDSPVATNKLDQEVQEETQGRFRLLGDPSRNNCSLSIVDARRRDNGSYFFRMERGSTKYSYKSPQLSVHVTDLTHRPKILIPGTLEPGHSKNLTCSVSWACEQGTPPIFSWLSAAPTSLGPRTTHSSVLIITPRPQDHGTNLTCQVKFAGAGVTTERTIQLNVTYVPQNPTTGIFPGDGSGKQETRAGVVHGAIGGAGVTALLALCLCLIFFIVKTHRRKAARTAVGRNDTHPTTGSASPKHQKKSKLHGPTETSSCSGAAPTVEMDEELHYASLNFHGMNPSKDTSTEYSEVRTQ

B1: CD33/CD3 2×2 T-cell engager 24 (bispecific antibody)
chain: DIQMTQSPSSLSASVGDRVTITCRSSTGAVTTSNYANWVQQKPGKAPKALIGGTNKRAPGVPSRFSGSLIGDKATLTISSLQPEDFATYYCALWYSNLWVFGQGTKVEIKGGSGGSQVQLVQSGAEVKKPGSSVKVSCKASGGTFDSYAISWVRQAPGQGLEWMGGIIPIFGSAHYSQKFQGRVTITADESTSTAYMELSSLRSEDTAVYYCAREYYYDSSEWAFDIWGQGTLVTVSSGGSGQSVLTQPPSASGTPGQRVTISCSGSSSNIGDNVVNWYQQLPGTAPKLLIYSTNKRPSGVPDRFSGSKSGSSASLAISGLQSEDEADYYCAAWDDSLSAYVFGGGTKLTVLGGSGGSEVQLVESGGGLVQPGGSLRLSCAASGFTFSTYAMNWVRQAPGKGLEWVGRIRSKYNNYATYYADSVKDRFTISRDDSKNSLYLQMNSLKTEDTAVYYCARHGNFGNSYVSYFAYWGQGTLVTVSSAAAGSHHHHHH
notes: Non-covalent homodimer
With B1, the “CD69 Induction EC50” value in [1] turned out to be 57 pM. The “T cell Proliferation in PBMC EC50” value in test [1] came to 264 pM. Also, the equilibrium dissociation constant (Kd) in test [2] worked out at 5600 pM; in test [3], 12400 pM; in test [4], 39500 pM; in test [6], 2300 pM; in test [7] it was 2300 pM; in test [8] it was 5600 pM. In addition, the “EC50 on HL-60 (cytotoxicity)” value in test [5] worked out at 9.6 pM.

B2: CD33/CD3 2×2 T-cell engager 18 (bispecific antibody)
chain: EVQLVESGGGLVQPGGSLRLSCAASGFTFSTYAMNWVRQAPGKGLEWVGRIRSKYNNYATYYADSVKDRFTISRDDSKNSLYLQMNSLKTEDTAVYYCARHGNFGNSYVSYFAYWGQGTLVTVSSGGSGGSQSVLTQPPSVSGAPGQRVTISCTGSSSNIGAGYDVHWYQQLPGTAPKLLIYGNSNRPSGVPDRFSGSKSGTSASLAITGLQAEDEADYYCQSYDSSLSDVVFGGGTKLTVLGGSGQVQLVQSGAEVKKPGESLKISCKGSGYSFTSYWIGWVRQMPGKGLEWMGIIYPGDSDTRYSPSFQGQVTISADKSISTAYLQWSSLKASDTAMYYCARHKRGSDAFDIWGQGTTVTVSSGGSGGSDIQMTQSPSSLSASVGDRVTITCRSSTGAVTTSNYANWVQQKPGKAPKALIGGTNKRAPGVPSRFSGSLIGDKATLTISSLQPEDFATYYCALWYSNLWVFGQGTKVEIKAAAGSHHHHHH
notes: Non-covalent homodimer
Take B2: in test [9], the “KD ratio cynoCD33/huCD33” value came out at 3.1. For the same molecule, the Kd in test [2] worked out at 3400 pM; in [3], 16300 pM; in test [4], 15100 pM; in [6], 1900 pM. Besides, in [5], the “EC50 on HL-60 (cytotoxicity)” value came to 6.3 pM.

B3: CD33/CD3 2×2 T-cell engager 06 (bispecific antibody)
chain: DIQMTQSPSSLSASVGDRVTITCRSSTGAVTTSNYANWVQQKPGKAPKGLIGGTNKRAPGVPARFSGSGSGTDFTLTISSLQPEDFATYYCALWYSNLWVFGQGTKVEIKGGSGGSQVQLVQSGAEVKKPGASVKVSCKASGYTFTSYDINWVRQAPGQGLEWMGWMNPNSGNTGFAQKFQGRVTMTRDTSTSTVYMELSSLRSEDTAVYYCARDRANTDYSLGMDVWGQGTLVTVSSGGSGGQSVLTQPPSASGTPGQRVTISCSGSRSNIGSNTVNWYQQLPGTAPKLLIYGNNQRPSGVPDRFSGSKSGTSASLAISGLQSEDEADYYCATWDDSLIGWVFGGGTKLTVLGGSGGSEVQLVESGGGLVQPGGSLRLSCAASGFTFSTYAMNWVRQAPGKGLEWVGRIRSKYNNYATYYADSVKDRFTISRDDSKNSLYLQMNSLKTEDTAVYYCARHGNFGNSYVSWFAYWGQGTLVTVSSAAAGSHHHHHH
notes: Non-covalent homodimer; also called 2×2 T-cell engager 6
On to B3, for which, in test [1], the “CD25 Induction EC50” value came to 39 pM. Besides, the “CD69 Induction EC50” value in test [1] was 21 pM. Besides, the “T cell Proliferation in PBMC EC50” value in test [1] was determined as 48 pM. Moreover, the Kd in test [2] was found to be 400 pM; in test [3], 500 pM; in [4], 1600 pM; in test [6], 86300 pM; in [7], 86300 pM; in test [8], 400 pM. For the same molecule, the “EC50 on HL-60 (cytotoxicity)” value in [5] is 1.6 pM.

B4: CD33/CD3 2×2 T-cell engager 20 (bispecific antibody)
chain: DIQMTQSPSSLSASVGDRVTITCRSSTGAVTTSNYANWVQQKPGKAPKGLIGGTNKRAPGVPSRFSGSLIGTDFTLTISSLQPEDFATYYCALWYSNLWVFGQGTKVEIKGGSGGSQVQLVQSGAEVKKPGASVKVSCKASGYTFTSYYMHWVRQAPGQGLEWMGIINPSGGSTSYAQKFQGRVTMTRDTSTSTVYMELSSLRSEDTAVYYCARDVVPAAIDYYGMDVWGQGTTVTVSSGGSGQSVLTQPPSASGTPGQRVTISCSGSSSNIGSNTVNWYQQLPGTAPKLLIYSDNQRPSGVPDRFSGSKSGSSASLAISGLQSDDEADYYCATWDDSLNGAVFGGGTKLTVLGGSGGSEVQLVESGGGLVQPGGSLRLSCAASGFTFSTYAMNWVRQAPGKGLEWVGRIRSKYNNYATYYADSVKDRFTISRDDSKNSLYLQMNSLKTEDTAVYYCARHGNFGNSYVSWFAYWGQGTLVTVSSAAAGSHHHHHH
notes: Non-covalent homodimer
B4: the “CD25 Induction EC50” value in test [1] worked out at 98 pM. In addition, in test [1], the “CD69 Induction EC50” value amounted to 75 pM. Besides, the “T cell Proliferation in PBMC EC50” value in [1] came to 38 pM. The “KD ratio cynoCD33/huCD33” value in [9] is 33.8. The Kd worked out at 4100 pM in test [2]; 7000 pM in [3]; 7200 pM in [4]; 144000 pM in [6]; 144000 pM in test [7]; 4100 pM in test [8]. Also, in [5], the “EC50 on HL-60 (cytotoxicity)” value was 10 pM.

B5: CD33/CD3 2×2 T-cell engager 14 (bispecific antibody)
chain: DIQMTQSPSSLSASVGDRVTITCRSSTGAVTTSNYANWVQQKPGKAPKALIGGTNKRAPGVPSRFSGSLIGDKATLTISSLQPEDFATYYCALWYSNLWVFGQGTKVEIKGGSGGSQVQLVQSGAEVKKPGASVKVSCKASGYTFTSYDINWVRQAPGQGLEWMGWMNPNSGNTGFAQKFQGRVTMTRDTSTSTVYMELSSLRSEDTAVYYCARDRANTDFSYGMDVWGQGTLVTVSSGGSGQSVLTQPPSASGTPGQRVTISCSGSRSNIGSNTVNWYQQLPGTAPKLLIYGNNQRPSGVPDRFSGSKSGTSASLAISGLQSEDEADYYCATWDDSLIGWVFGGGTKLTVLGGSGGSEVQLVESGGGLVQPGGSLRLSCAASGFTFSTYAMNWVRQAPGKGLEWVGRIRSKYNNYATYYADSVKDRFTISRDDSKNSLYLQMNSLKTEDTAVYYCARHGNFGNSYVSYFAYWGQGTLVTVSSAAAGSHHHHHH
notes: Non-covalent homodimer
Turning to B5, in test [1], the “CD25 Induction EC50” value turned out to be 10 pM. The “CD69 Induction EC50” value in test [1] stood at 7 pM. Also, the “T cell Proliferation in PBMC EC50” value in [1] came out at 6 pM. The Kd is 300 pM in [2]; 300 pM in [3]; 1200 pM in test [4]; 2100 pM in [6]; 2100 pM in test [7]; 300 pM in test [8]. Moreover, the “EC50, cytotoxicity on HL-60” value in [10] is 1.6 pM and 168 pg/mL. Further, the “EC50, cytotoxicity on KG-1” value in test [10] is 2.6 pM and 273 pg/mL. Besides, the “EC50, cytotoxicity on U-937” value in test [10] was 3.6 pM and 378 pg/mL. Besides, the “EC50, cytotoxicity, mean of HL-60, U-937, KG-1” value in test [10] was 2.6 pM and 273 pg/mL. For the same molecule, in test [5], the “EC50 on HL-60 (cytotoxicity)” value came out at 1.6 pM.
